# Key:
# HeLa Kyoto [1] = test: melting temperature (median over replicates), in situ; higher = more thermally stable
# HeLa Kyoto [2] = test: solubility change mitosis vs G1/S (difference of NP-40 vs SDS log2 ratios) (log2 ratio difference); higher = more soluble in mitosis
# HeLa Kyoto [3] = test: solubility in G1/S (NP-40 vs SDS abundance) (log2 ratio); higher = more soluble; settings: cell cycle stage: G1/S
# HeLa Kyoto [4] = test: thermal stability score vs G1/S (z-score of summed log2 fold changes over temperatures); higher = more thermally stable than in G1/S
# [5] = cell cycle stage: early G1 (4.5 h after nocodazole release)
# 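Wherever melting temperature (median over replicates), in situ is given: HeLa Kyoto cells synchronized by double thymidine or nocodazole block, proteins quantified by TMT10plex mass spectrometry, three independent biological replicates.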
# 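Wherever solubility change mitosis vs G1/S (difference of NP-40 vs SDS log2 ratios) is given: synchronized HeLa Kyoto cells (double thymidine block for G1/S, nocodazole release for mitosis), protein amounts in NP-40 versus SDS lysates quantified by mass spectrometry, three biological replicates.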
# 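Wherever solubility in G1/S (NP-40 vs SDS abundance) is given: HeLa Kyoto cells arrested at G1/S by double thymidine block, proteins quantified by TMT10plex mass spectrometry in mild NP-40 versus SDS extracts, three biological replicates.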
# 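Wherever thermal stability score vs G1/S (z-score of summed log2 fold changes over temperatures) is given: synchronized HeLa Kyoto cells, proteins quantified by TMT10plex mass spectrometry, three biological replicates, mitosis taken 0.5 h after nocodazole release, G1/S directly after double thymidine block.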
Sequence,melting temperature (HeLa Kyoto [1]; cell cycle stage: G1/S) [°C],melting temperature (HeLa Kyoto [1]; cell cycle stage: mitosis) [°C],solubility change mitosis (log2) (HeLa Kyoto [2]),solubility in G1/S (log2) (HeLa Kyoto [3]),thermal stability score (HeLa Kyoto [4]; [5]),thermal stability score (HeLa Kyoto [4]; cell cycle stage: mitosis)
MATGLGEPVYGLSEDEGESRILRVKVVSGIDLAKKDIFGASDPYVKLSLYVADENRELALVQTKTIKKTLNPKWNEEFYFRVNPSNHRLLFEVFDENRLTRDDFLGQVDVPLSHLPTEDPTMERPYTFKDFLLRPRSHKSRVKGFLRLKMAYMPKNGGQDEENSDQRDDMEHGWEVVDSNDSASQHQEELPPPPLPPGWEEKVDNLGRTYYVNHNNRTTQWHRPSLMDVSSESDNNIRQINQEAAHRRFRSRRHISEDLEPEPSEGGDVPEPWETISEEVNIAGDSLGLALPPPPASPGSRTSPQELSEELSRRLQITPDSNGEQFSSLIQREPSSRLRSCSVTDAVAEQGHLPPPSAPAGRARSSTVTGGEEPTPSVAYVHTTPGLPSGWEERKDAKGRTYYVNHNNRTTTWTRPIMQLAEDGASGSATNSNNHLIEPQIRRPRSLSSPTVTLSAPLEGAKDSPVRRAVKDTLSNPQSPQPSPYNSPKPQHKVTQSFLPPGWEMRIAPNGRPFFIDHNTKTTTWEDPRLKFPVHMRSKTSLNPNDLGPLPPGWEERIHLDGRTFYIDHNSKITQWEDPRLQNPAITGPAVPYSREFKQKYDYFRKKLKKPADIPNRFEMKLHRNNIFEESYRRIMSVKRPDVLKARLWIEFESEKGLDYGGVAREWFFLLSKEMFNPYYGLFEYSATDNYTLQINPNSGLCNEDHLSYFTFIGRVAGLAVFHGKLLDGFFIRPFYKMMLGKQITLNDMESVDSEYYNSLKWILENDPTELDLMFCIDEENFGQTYQVDLKPNGSEIMVTNENKREYIDLVIQWRFVNRVQKQMNAFLEGFTELLPIDLIKIFDENELELLMCGLGDVDVNDWRQHSIYKNGYCPNHPVIQWFWKAVLLMDAEKRIRLLQFVTGTSRVPMNGFAELYGSNGPQLFTIEQWGSPEKLPRAHTCFNRLDLPPYETFEDLREKLLMAVENAQGFEGVD [NEDD4L],50,49.6,-0.189,-0.0714,0.949,2.33
MATIPDWKLQLLARRRQEEASVRGREKAERERLSQMPAWKRGLLERRRAKLGLSPGEPSPVLGTVEAGPPDPDESAVLLEAIGPVHQNRFIRQERQQQQQQQQRSEELLAERKPGPLEARERRPSPGEMRDQSPKGRESREERLSPRETRERRLGIGGAQELSLRPLEARDWRQSPGEVGDRSSRLSEAWKWRLSPGETPERSLRLAESREQSPRRKEVESRLSPGESAYQKLGLTEAHKWRPDSRESQEQSLVQLEATEWRLRSGEERQDYSEECGRKEEWPVPGVAPKETAELSETLTREAQGNSSAGVEAAEQRPVEDGERGMKPTEGWKWTLNSGKAREWTPRDIEAQTQKPEPPESAEKLLESPGVEAGEGEAEKEEAGAQGRPLRALQNCCSVPSPLPPEDAGTGGLRQQEEEAVELQPPPPAPLSPPPPAPTAPQPPGDPLMSRLFYGVKAGPGVGAPRRSGHTFTVNPRRSVPPATPATPTSPATVDAAVPGAGKKRYPTAEEILVLGGYLRLSRSCLAKGSPERHHKQLKISFSETALETTYQYPSESSVLEELGPEPEVPSAPNPPAAQPDDEEDEEELLLLQPELQGGLRTKALIVDESCRR [PPP1R18],52.5,52,0.428,-0.53,0.778,0.67
MATLRRLREAPRHLLVCEKSNFGNHKSRHRHLVQTHYYNYRVSFLIPECGILSEELKNLVMNTGPYYFVKNLPLHELITPEFISTFIKKGSCYALTYNTHIDEDNTVALLPNGKLILSLDKDTYEETGLQGHPSQFSGRKIMKFIVSIDLMELSLNLDSKKYERISWSFKEKKPLKFDFLLAWHKTGSEESTMMSYFSKYQIQEHQPKVALSTLRDLQCPVLQSSELEGTPEVSCRALELFDWLGAVFSNVDLNNEPNNFISTYCCPEPSTVVAKAYLCTITGFILPEKICLLLEHLCHYFDEPKLAPWVTLSVQGFADSPVSWEKNEHGFRKGGEHLYNFVIFNNQDYWLQMAVGANDHCPP [RPP40],55.5,56.5,-0.00249,-0.386,-1.89,-4.46
MATPVVTKTAWKLQEIVAHASNVSSLVLGKASGRLLATGGDDCRVNLWSINKPNCIMSLTGHTSPVESVRLNTPEELIVAGSQSGSIRVWDLEAAKILRTLMGHKANICSLDFHPYGEFVASGSQDTNIKLWDIRRKGCVFRYRGHSQAVRCLRFSPDGKWLASAADDHTVKLWDLTAGKMMSEFPGHTGPVNVVEFHPNEYLLASGSSDRTIRFWDLEKFQVVSCIEGEPGPVRSVLFNPDGCCLYSGCQDSLRVYGWEPERCFDVVLVNWGKVADLAICNDQLIGVAFSQSNVSSYVVDLTRVTRTGTVARDPVQDHRPLAQPLPNPSAPLRRIYERPSTTCSKPQRVKQNSESERRSPSSEDDRDERESRAEIQNAEDYNEIFQPKNSISRTPPRRSEPFPAPPEDDAATAKEAAKPSPAMDVQFPVPNLEVLPRPPVVASTPAPKAEPAIIPATRNEPIGLKASDFLPAVKIPQQAELVDEDAMSQIRKGHDTMCVVLTSRHKNLDTVRAVWTMGDIKTSVDSAVAINDLSVVVDLLNIVNQKASLWKLDLCTTVLPQIEKLLQSKYESYVQTGCTSLKLILQRFLPLITDMLAAPPSVGVDISREERLHKCRLCYKQLKSISGLVKSKSGLSGRHGSTFRELHLLMASLD [KATNB1],50.5,51,-0.0538,-0.135,0.62,0.499
MATSATSPHAPGFPAEGRCGYYVEKKKRFCRMVVAAGKRFCGEHAGAAEEEDARKRILCPLDPKHTVYEDQLAKHLKKCNSREKPKPDFYIQDINAGLRDETEIPEQLVPISSLSEEQLEKLIKKLRKASEGLNSTLKDHIMSHPALHDALNDPKNGDSATKHLKQQASILGNIENLKLLGPRRCFVEFGAGKGKLSHWVDIALKDAEKVHFILVEKVTTRFKVDGKHRKKNSVFERLQIDIQHLCLNKIPVLREEKLPVVGIGKHLCGMATDLALRCLVETYAASFEERNEEPLAKRIKNDKTEKEIYTLAKEGNEKNVPEKWNPVAGIVIALCCHHRCDWRHYVGKEYFRALGLGAVEFHYFQRMSSWATCGMRKTSLETSNSTTKRQDNQNDDSEEHDDGGYRITDDGADCLPGLLSVEEKKKIGHLCKLLIDQGRIQYLQQKGFSPALQYYTDPLVSLENVLLTALPNHSSSPETTA [TRMT13],,50.3,-0.0657,0.027,1.03,0.684
MATSLGSNTYNRQNWEDADFPILCQTCLGENPYIRMTKEKYGKECKICARPFTVFRWCPGVRMRFKKTEVCQTCSKLKNVCQTCLLDLEYGLPIQVRDAGLSFKDDMPKSDVNKEYYTQNMEREISNSDGTRPVGMLGKATSTSDMLLKLARTTPYYKRNRPHICSFWVKGECKRGEECPYRHEKPTDPDDPLADQNIKDRYYGINDPVADKLLKRASTMPRLDPPEDKTITTLYVGGLGDTITETDLRNHFYQFGEIRTITVVQRQQCAFIQFATRQAAEVAAEKSFNKLIVNGRRLNVKWGRSQAARGKEKEKDGTTDSGIKLEPVPGLPGALPPPPAAEEEASANYFNLPPSGPPAVVNIALPPPPGIAPPPPPGFGPHMFHPMGPPPPFMRAPGPIHYPSQDPQRMGAHAGKHSSP [RBM22],48.6,49.8,0.274,-0.116,-0.922,-0.478
MATSNLLKNKGSLQFEDKWDFMRPIVLKLLRQESVTKQQWFDLFSDVHAVCLWDDKGPAKIHQALKEDILEFIKQAQARVLSHQDDTALLKAYIVEWRKFFTQCDILPKPFCQLEITLMGKQGSNKKSNVEDSIVRKLMLDTWNESIFSNIKNRLQDSAMKLVHAERLGEAFDSQLVIGVRESYVNLCSNPEDKLQIYRDNFEKAYLDSTERFYRTQAPSYLQQNGVQNYMKYADAKLKEEEKRALRYLETRRECNSVEALMECCVNALVTSFKETILAECQGMIKRNETEKLHLMFSLMDKVPNGIEPMLKDLEEHIISAGLADMVAAAETITTDSEKYVEQLLTLFNRFSKLVKEAFQDDPRFLTARDKAYKAVVNDATIFKLELPLKQKGVGLKTQPESKCPELLANYCDMLLRKTPLSKKLTSEEIEAKLKEVLLVLKYVQNKDVFMRYHKAHLTRRLILDISADSEIEENMVEWLREVGMPADYVNKLARMFQDIKVSEDLNQAFKEMHKNNKLALPADSVNIKILNAGAWSRSSEKVFVSLPTELEDLIPEVEEFYKKNHSGRKLHWHHLMSNGIITFKNEVGQYDLEVTTFQLAVLFAWNQRPREKISFENLKLATELPDAELRRTLWSLVAFPKLKRQVLLYEPQVNSPKDFTEGTLFSVNQEFSLIKNAKVQKRGKINLIGRLQLTTERMREEENEGIVQLRILRTQEAIIQIMKMRKKISNAQLQTELVEILKNMFLPQKKMIKEQIEWLIEHKYIRRDESDINTFIYMA [CUL5],55.6,54,-0.233,-0.152,-0.282,-0.5
